Source: doi:10.1101/2021.11.18.469126

Target: TASK3 (UniProt Q9NPC2)
Test: fluorescence polarisation

Chain of UniProt Q9NPC2 (Q9NPC2 whole entry): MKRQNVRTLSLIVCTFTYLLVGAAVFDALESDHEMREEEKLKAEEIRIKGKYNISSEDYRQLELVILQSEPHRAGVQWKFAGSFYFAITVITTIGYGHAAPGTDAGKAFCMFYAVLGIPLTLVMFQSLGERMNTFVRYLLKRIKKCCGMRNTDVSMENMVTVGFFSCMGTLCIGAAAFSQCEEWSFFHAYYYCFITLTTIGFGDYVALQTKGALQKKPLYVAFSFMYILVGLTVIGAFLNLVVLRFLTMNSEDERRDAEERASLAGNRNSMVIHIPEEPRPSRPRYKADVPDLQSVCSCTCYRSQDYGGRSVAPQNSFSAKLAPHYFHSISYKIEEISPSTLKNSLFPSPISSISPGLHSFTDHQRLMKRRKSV

14-3-3 protein (from UniProt P31947 1-248) (natural protein)
Kd: 4.05 µM
cooperativity factor α (stabilisation of the pair by fusicoccin-A): 1340
